Test results from US20220033501A1 (SHANGHAI PHARMAEXPLORER, published 2022).
Residue numbers refer to the chain shown, from its start.

B1: 215A8F2 fully human TIM-3 antibody (human IgG4, kappa) (antibody, V domains shown)
VH: QVQLQQWGAGLLKPSETLSLTCTVYGGSFSGYYWNWIRQPPGKGLEWLGEINHSGSTNYNPSLKRRVTISVDTSKNQFSLKLSSVTAADTAVYYCARVYYYGPFDFWGQGTLVTVSS
VL: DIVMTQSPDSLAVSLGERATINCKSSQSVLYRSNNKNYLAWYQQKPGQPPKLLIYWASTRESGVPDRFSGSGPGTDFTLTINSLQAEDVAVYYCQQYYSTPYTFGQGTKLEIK
B2: 215A8F2 (TIM-3 antibody purified from hybridoma, chimeric antibody of Example 2) (antibody, V domains shown)
VH: B1 VH
VL: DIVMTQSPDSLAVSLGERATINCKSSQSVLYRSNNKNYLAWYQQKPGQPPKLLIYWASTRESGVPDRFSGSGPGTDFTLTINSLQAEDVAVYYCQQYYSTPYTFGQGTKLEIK
notes: From hybridoma of Harbour H2L2 transgenic mice: human variable regions, rat constant regions
B3: 7A4F10 fully human TIM-3 antibody (human IgG4, kappa) (antibody, V domains shown)
VH: EVQLLESGGGLVQPGGSLRLSCAASGFTFRTHLISWVRQAPGKGLEWVAAITGSGGSTYYADSVKGRFIISRDNSKNTLFLQMNSLRAEDTAVYYCAKDGGSGSYDDFWGQGTLVTVSS
VL: ETVLTQSPVTLSLSPGERATLSCRASQSVGSYLAWYQQKPGQAPRLLIYDASNRATGIPARFSGSGSGTDFTLTISSLEPEDFAVYYCQQRSNWPPTFGQGTKVEIK
B4: 7A4F10 (TIM-3 antibody purified from hybridoma, chimeric antibody of Example 2) (antibody, V domains shown)
VH: B3 VH
VL: B3 VL
notes: as for B2
B5: 34B6D8 (TIM-3 antibody purified from hybridoma, chimeric antibody of Example 2) (antibody, V domains shown)
VH: EVQLVESGGGLVQPGGSLRLSCAASGFTFSTYWMTWVRQAPGKRLEWVANIKQGGGDKYYVDSVKGRFTISTDNAKNSLYLQMNSLRAEDTAVYYCARGSNWFDPWGQGTLVTVSS
VL: EIVMTQSPATLSMSPGERATLSCRASQSVYDNLAWYQQKPGQAPRLLIYGASTRATGIPARFSGSGSGTEFTLTISSLQSEDFALYYCQQYTHWPITFGQGTRLEIK
notes: as for B2
B6: 57F4E5 fully human TIM-3 antibody (human IgG4, kappa) (antibody, V domains shown)
VH: EVQLVESGGGLVQPGGSLRLSCAASGFTFSSYWMSWVRQAPGKGLEWVANIKQDGSEKYYVDSVKGRFTISRDSAKNSLYLQMNSLRAEDTAMYFCARDSNFFDYWGQGTLVTVSS
VL: ETVMTQSPATLSVSPGERATLSCRASQSVSSNLAWYQRKPGQAPRLLIYFSSTRATGIPARFSGSGSGTEFTLTISSLQSEDFAVYYCQQYNNWPLTFGGGTKVEIK
B7: 57F4E5 (TIM-3 antibody purified from hybridoma, chimeric antibody of Example 2) (antibody, V domains shown)
VH: B6 VH
VL: B6 VL
notes: as for B2
B8: 134H3G6 fully human TIM-3 antibody (human IgG4, kappa) (antibody, V domains shown)
VH: EVQLVESGGGLVQPGGSLRLSCAASGFTFSNSWMTWVRQAPGKGLEWVANIKQAGTEKYYVDSVKGRFTISRDNAKNSLYLQMNSLRAEDTAVYYCNSGSNYFDYWGQGTLVTVSS
VL: B6 VL with T2I, S26R, S28N, V29F, S30Y, R38Q, F50G, S51A
B9: 39E5H1 (TIM-3 antibody purified from hybridoma, chimeric antibody of Example 2) (antibody, V domains shown)
VH: B5 VH with T31S, T35S, R44G, Q53R, G56S, D57E, K58R, T72G, L79V
VL: B5 VL with I2T, T10I, M13V, D31S, P40L, G50D, L85V, T92N, H93N
notes: as for B2
B10: 18D2H2 fully human TIM-3 antibody (human IgG4, kappa) (antibody, V domains shown)
VH: B5 VH with G10D, K43R, R44G, G54D, G56S, D57A, I70L, T72R, N74D, P105Y
VL: B6 VL with S26N, S28N, S30Y, R38Q, F50D, S51A, I58F
B11: 18D2H2 (TIM-3 antibody purified from hybridoma, chimeric antibody of Example 2) (antibody, V domains shown)
VH: B5 VH with G10D, K43R, R44G, G54D, G56S, D57A, I70L, T72R, N74D, P105Y
VL: B6 VL with S26N, S28N, S30Y, R38Q, F50D, S51A, I58F
notes: as for B2
B12: 134H3G6 (TIM-3 antibody purified from hybridoma, chimeric antibody of Example 2) (antibody, V domains shown)
VH: B8 VH
VL: B6 VL with T2I, S26R, S28N, V29F, S30Y, R38Q, F50G, S51A
notes: as for B2

Tests used:
[1] = molecular target: T1, monkey TIM-3 on CHOK1 stable cell line (CHOK1-cTIM-3) (monkey); experiment: FACS, CHOK1-cTIM-3 cells, 1.6 nM antibody
T1 chain: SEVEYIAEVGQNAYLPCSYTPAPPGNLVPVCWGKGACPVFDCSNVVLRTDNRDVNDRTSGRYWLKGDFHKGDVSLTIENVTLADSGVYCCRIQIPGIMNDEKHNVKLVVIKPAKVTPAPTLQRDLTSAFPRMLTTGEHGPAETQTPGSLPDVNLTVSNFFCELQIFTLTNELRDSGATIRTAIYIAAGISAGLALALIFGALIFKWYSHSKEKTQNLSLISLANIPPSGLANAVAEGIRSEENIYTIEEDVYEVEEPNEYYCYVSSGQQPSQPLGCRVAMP

[2] = molecular target: T2, monkey TIM-3 extracellular domain protein with hFc tag (cTIM-3-hFc) (monkey); experiment: ELISA, coated monkey TIM-3 ECD protein, 0.0067 nM antibody
T2 construct: not shown: human IgG Fc fragment (hFc) of the pCpC vector
T2 chain: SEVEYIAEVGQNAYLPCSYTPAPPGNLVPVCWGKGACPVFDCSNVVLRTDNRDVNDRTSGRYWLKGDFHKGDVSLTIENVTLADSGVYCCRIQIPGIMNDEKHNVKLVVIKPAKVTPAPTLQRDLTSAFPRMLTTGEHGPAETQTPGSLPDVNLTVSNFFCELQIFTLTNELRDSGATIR

[3] = molecular target: T3, human TIM-3 extracellular domain protein with hFc tag (hTIM-3-hFc) (human, UniProt Q8TDQ0 22-200); experiment: ELISA, coated human TIM-3 ECD protein, 0 nM antibody
T3 construct: not shown: human IgG Fc fragment (hFc) of the pCpC vector
T3 sequence: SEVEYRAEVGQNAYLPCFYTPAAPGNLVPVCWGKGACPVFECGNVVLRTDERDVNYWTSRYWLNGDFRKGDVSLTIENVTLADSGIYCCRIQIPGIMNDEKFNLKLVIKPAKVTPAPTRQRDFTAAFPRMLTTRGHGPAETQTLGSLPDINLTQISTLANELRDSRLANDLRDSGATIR

[4] = molecular target: T4, human TIM-3 on CHOK1 stable cell line (CHOK1-hTIM-3) (human, UniProt Q8TDQ0 22-301); experiment: FACS, CHOK1-hTIM-3 cells, 0 nM antibody
T4 sequence: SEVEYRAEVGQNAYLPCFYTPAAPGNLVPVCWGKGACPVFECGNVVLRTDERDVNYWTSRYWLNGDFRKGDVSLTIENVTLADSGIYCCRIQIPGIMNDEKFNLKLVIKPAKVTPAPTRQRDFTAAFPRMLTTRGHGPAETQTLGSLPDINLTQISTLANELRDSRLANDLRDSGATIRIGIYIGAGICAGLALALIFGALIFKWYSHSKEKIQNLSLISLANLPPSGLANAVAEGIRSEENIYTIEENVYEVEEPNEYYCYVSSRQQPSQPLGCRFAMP

[5] = molecular target: T5, monkey TIM-3 protein with hFc tag (cTIM-3-hFc protein) (monkey; human); experiment: ELISA, coated cTIM-3-hFc; antibody 0.0001 nM
T5 construct: Made in HEK293 cells; also called monkey TIM-3 extracellular domain protein; not shown: human IgG Fc fragment (hFc) of the pCpC vector
T5 chain: T2 chain
Source text: (§1) The amino acid sequence 22-200 of the extracellular domain of the human TIM-3 protein described in the step of Example 1 (as shown in SEQ ID NO. 71 in the sequence listing) was cloned into a pCpC vector having a human IgG Fc fragment (hFc), and transfected into HEK293 cells. The cell culture medium was collected, and purified to obtain the human TIM-3 protein with hFc tag (herein referred to as hTIM-3-hFc protein). The amino acid sequence 22-201 of the extracellular domain of the monkey TIM-3 protein (as shown in SEQ ID NO. 72 in the sequence listing) was cloned into a pCpC vector having a human IgG Fc fragment (hFc), and transfected into HEK293 cells. The cell culture medium was collected, and purified to obtain the monkey TIM-3 protein with hFc tag (herein referred to as cTIM-3-hFc protein). […] The cell culture medium was collected, and purified to obtain the murine TIM-3 protein with hFc tag (herein referred to as mTIM-3-hFc protein). Purified human, monkey, and mouse TIM-3 extracellular domain proteins (hTIM-3-hFc, cTIM-3-hFc, and mTIM-3-hFc) were diluted with PBS to a final concentration of 1.0 μg/ml and then added to a 96-well ELISA plate with 100 μl per well. The plate was sealed with plastic film and incubated overnight at 4° C. The plate was washed 4 times with the plate washing solution (PBS+0.01% Tween20) on the next day, and added with the blocking solution (PBS+0.01% Tween20+1% BSA) and sealed at room temperature for 1-2 hours. The blocking solution was poured out. 50-100 μl of the antibody sample to be tested was added to each well. The plate was incubated at 37° C. for 1-2 hours, and washed 2-3 times with plate washing solution (PBS+0. 01% Tween20). HRP (horseradish peroxidase) labeled secondary antibody was added. The plate was incubated at 37° C. for 1-2 hours, and washed 2-3 times with plate washing solution (PBS+0. 01% Tween20). […] of TMB substrate was added to each well. After incubated at room temperature for 15-30 minutes, the plate was added with […] stop solution (1.0N HCl) to each well. An ELISA plate reader (TiterMax 384plus, Molecular Device) was used to read the A450 nm value.

[6] = molecular target: T5, monkey TIM-3 protein with hFc tag …; experiment: ELISA, coated cTIM-3-hFc; antibody 66.667 nM
Source text: as §1

[7] = molecular target: T5, monkey TIM-3 protein with hFc tag …; experiment: ELISA, coated cTIM-3-hFc; antibody 0.0667 nM
Source text: as §1

[8] = molecular target: T6, human TIM-3 protein with hFc tag (hTIM-3-hFc protein) (human, UniProt Q8TDQ0 22-200); experiment: ELISA, coated hTIM-3-hFc; antibody 0.0667 nM
T6 construct: also called immunogen 1; human TIM-3 extracellular domain protein; not shown: human IgG Fc fragment (hFc) of the pCpC vector
T6 sequence: T3 sequence
Source text: as §1

[9] = molecular target: T6, human TIM-3 protein with hFc tag …; experiment: ELISA, coated hTIM-3-hFc; antibody 0.0067 nM
Source text: as §1

Binder	Mean fluorescence intensity [1]	OD450 [2]	OD450 [3]	Mean fluorescence intensity [4]	OD450 [5]	OD450 [6]	OD450 [7]	OD450 [8]	OD450 [9]
B1	252	0.33	0.08	2.9	–	–	–	–	–
B2	–	–	–	–	0.52	3.49	1.5	1	0.28
B3	177	0.18	0.08	2.8	–	–	–	–	–
B4	–	–	–	–	0.54	3.46	0.7	0.21	0.13
B5	–	–	–	–	0.57	3.52	1.92	1.62	0.33
B6	207	0.32	0.08	2.9	–	–	–	–	–
B7	–	–	–	–	0.58	3.47	2.68	2.83	0.63
B8	326	0.3	0.08	2.8	–	–	–	–	–
B9	–	–	–	–	0.57	3.47	1.98	1.78	0.42
B10	333	0.33	0.07	2.8	–	–	–	–	–
B11	–	–	–	–	0.53	3.44	0.74	0.35	0.16
B12	–	–	–	–	0.54	3.43	0.64	0.2	0.13
